Assays:
[1] = target: T1, GFP-MORF8 (condensates) (Arabidopsis thaliana, UniProt Q9LKA5 1-395); assay: condensate partitioning
T1 sequence: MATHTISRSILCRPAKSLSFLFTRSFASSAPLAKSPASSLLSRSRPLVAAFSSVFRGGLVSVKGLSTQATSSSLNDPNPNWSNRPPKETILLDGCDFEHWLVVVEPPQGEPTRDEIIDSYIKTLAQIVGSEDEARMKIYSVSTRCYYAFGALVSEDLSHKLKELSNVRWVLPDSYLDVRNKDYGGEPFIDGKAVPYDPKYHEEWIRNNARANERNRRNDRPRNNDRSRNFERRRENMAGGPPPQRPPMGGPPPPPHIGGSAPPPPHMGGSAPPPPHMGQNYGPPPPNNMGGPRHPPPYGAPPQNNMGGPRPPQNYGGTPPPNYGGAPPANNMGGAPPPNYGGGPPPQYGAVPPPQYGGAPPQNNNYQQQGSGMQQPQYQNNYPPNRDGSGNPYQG

[2] = target: T2, LPA66-BFP;MBP-GFP-MORF8 (diffuse) (Arabidopsis thaliana;Arabidopsis …, UniProt Q9FI80;Q9LKA5 35-515;1-395, |); assay: EMSA
T2 sequence 1: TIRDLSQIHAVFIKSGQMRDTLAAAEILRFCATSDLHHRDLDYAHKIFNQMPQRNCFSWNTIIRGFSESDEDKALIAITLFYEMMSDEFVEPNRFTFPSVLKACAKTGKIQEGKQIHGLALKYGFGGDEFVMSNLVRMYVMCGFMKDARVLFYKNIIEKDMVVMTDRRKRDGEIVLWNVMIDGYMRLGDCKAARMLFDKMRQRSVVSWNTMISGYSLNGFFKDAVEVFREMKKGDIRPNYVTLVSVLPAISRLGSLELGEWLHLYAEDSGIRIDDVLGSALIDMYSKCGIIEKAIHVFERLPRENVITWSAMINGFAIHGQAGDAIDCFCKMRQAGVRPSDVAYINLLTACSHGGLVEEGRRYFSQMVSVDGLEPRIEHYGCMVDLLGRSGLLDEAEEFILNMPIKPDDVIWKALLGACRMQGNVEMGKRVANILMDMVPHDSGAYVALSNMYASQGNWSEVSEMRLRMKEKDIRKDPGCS
T2 sequence 2: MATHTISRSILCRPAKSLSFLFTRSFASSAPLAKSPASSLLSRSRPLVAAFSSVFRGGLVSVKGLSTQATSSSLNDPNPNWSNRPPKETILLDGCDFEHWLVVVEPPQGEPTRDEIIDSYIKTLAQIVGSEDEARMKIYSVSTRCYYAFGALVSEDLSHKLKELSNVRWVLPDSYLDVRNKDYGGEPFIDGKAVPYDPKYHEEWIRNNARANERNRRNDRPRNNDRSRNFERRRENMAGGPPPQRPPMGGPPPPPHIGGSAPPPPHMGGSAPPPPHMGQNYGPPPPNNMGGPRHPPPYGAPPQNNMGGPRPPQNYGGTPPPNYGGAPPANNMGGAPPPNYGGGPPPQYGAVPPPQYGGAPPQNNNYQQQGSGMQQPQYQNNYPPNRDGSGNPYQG

[3] = target: T3, LPA66-BFP (Arabidopsis thaliana, UniProt Q9FI80 35-515); assay: EMSA after sedimentation
T3 sequence: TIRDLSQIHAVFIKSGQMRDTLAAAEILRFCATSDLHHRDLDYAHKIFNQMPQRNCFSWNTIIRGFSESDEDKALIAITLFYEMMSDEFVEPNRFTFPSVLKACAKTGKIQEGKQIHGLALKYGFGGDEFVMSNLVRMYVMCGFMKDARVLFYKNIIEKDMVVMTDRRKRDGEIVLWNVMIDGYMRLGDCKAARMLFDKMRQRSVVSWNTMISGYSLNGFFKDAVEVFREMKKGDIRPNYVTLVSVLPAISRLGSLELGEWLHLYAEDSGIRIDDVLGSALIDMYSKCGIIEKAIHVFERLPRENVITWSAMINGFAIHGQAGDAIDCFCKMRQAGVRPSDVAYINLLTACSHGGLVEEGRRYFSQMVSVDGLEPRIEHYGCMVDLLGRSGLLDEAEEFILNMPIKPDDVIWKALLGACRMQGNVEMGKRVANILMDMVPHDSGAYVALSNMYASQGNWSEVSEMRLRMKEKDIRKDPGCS

Measured: binding result

UAGCUGUACCUACCGUUUCUUUU (ssRNA) [psbF RNA probe]
binds: [1] | [2] | [3]
